Data on 3 molecules can be found in US20150139990A1 (DAINIPPON SUMITOMO PHARMA, published 2015).

Where a chain is given by its changes, count along the chain named. In names and notes the source's numbering stands.

The target in one assay is T1, human CD81 mutant V169A (human, UniProt P60033 1-236, limits assumed).
T1 construct: as m30; not shown: C-terminal V5 and 6xHis tags
T1 sequence: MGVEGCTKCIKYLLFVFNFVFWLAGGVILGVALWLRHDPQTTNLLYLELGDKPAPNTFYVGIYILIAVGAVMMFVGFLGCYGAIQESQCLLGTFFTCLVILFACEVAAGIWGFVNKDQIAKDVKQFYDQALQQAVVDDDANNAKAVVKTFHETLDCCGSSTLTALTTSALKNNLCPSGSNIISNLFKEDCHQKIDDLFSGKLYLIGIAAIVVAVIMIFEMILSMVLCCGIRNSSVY
As to the kind of experiment: ELISA. (In general: In an ELISA, binding on a coated surface is turned into a signal by an enzyme label.)

In another assay the target is T2, human CD81 mutant N172A (human, UniProt P60033 1-236, limits assumed).
T2 construct: as m30; not shown: C-terminal V5 and 6xHis tags
T2 sequence: T1 sequence with A169V, N172A
As to the kind of experiment: ELISA.

For assay [1], the target named is T3, human CD81 on CD81-expressing cells (Jurkat E6.1, human PBMC, Ramos) (human, UniProt P60033 1-236).
T3 sequence: T1 sequence with A169V
As to the kind of experiment: cell-based or functional assay.

The next assay addresses T4, human CD81 mutant D137A (human, UniProt P60033 1-236, limits assumed).
T4 construct: as m30; not shown: C-terminal V5 and 6xHis tags
T4 sequence: T1 sequence with D137A, A169V
As to the kind of experiment: ELISA.

For the next assay, the target named is T5, human CD81 mutant G158S (human, UniProt P60033 1-236, limits assumed).
T5 construct: as m30; not shown: C-terminal V5 and 6xHis tags
T5 sequence: T1 sequence with G158S, A169V
As to the kind of experiment: ELISA.

The target of another assay is T6, human CD81 mutant A164T (human, UniProt P60033 1-236, limits assumed).
T6 construct: as m30; not shown: C-terminal V5 and 6xHis tags
T6 sequence: T1 sequence with A164T, A169V
In words: ELISA.

In the next assay the target is T7, human CD81 mutant L165A (human, UniProt P60033 1-236, limits assumed).
T7 construct: as m30; not shown: C-terminal V5 and 6xHis tags
T7 sequence: T1 sequence with L165A, A169V
In words: ELISA.

The target in another assay is T8, human CD81 mutant V135A (human, UniProt P60033 1-236, limits assumed).
T8 construct: as m30; not shown: C-terminal V5 and 6xHis tags
T8 sequence: T1 sequence with V135A, A169V
As to the kind of experiment: ELISA.

In another assay the target is T9, human CD81 mutant D137E (human, UniProt P60033 1-236, limits assumed).
T9 construct: as m30; not shown: C-terminal V5 and 6xHis tags
T9 sequence: T1 sequence with D137E, A169V
In words: ELISA.

Another assay deals with T10, human CD81 mutant V135L (human, UniProt P60033 1-236, limits assumed).
T10 construct: as m30; not shown: C-terminal V5 and 6xHis tags
T10 sequence: T1 sequence with V135L, A169V
As to the kind of experiment: ELISA.

The target of a further assay is T11, human CD81 mutant V169L (human, UniProt P60033 1-236, limits assumed).
T11 construct: as m30; not shown: C-terminal V5 and 6xHis tags
T11 sequence: T1 sequence with A169L
In words: ELISA.

A further assay deals with T12, human CD81 mutant A164V (human, UniProt P60033 1-236, limits assumed).
T12 construct: as m30; not shown: C-terminal V5 and 6xHis tags
T12 sequence: T1 sequence with A164V, A169V
In words: ELISA.

A further assay addresses T13, human CD81 mutant H151R (human, UniProt P60033 1-236, limits assumed).
T13 construct: as m30; also called H151B; not shown: C-terminal V5 and 6xHis tags
T13 sequence: T1 sequence with H151R, A169V
As to the kind of experiment: ELISA.

In assay [2] the target is T3, human CD81 on CD81-expressing cells …. As to the kind of experiment: FMAT on CD81-expressing and non-expressing cells. From the text: A complete human antibody library n-CoDeR (Nature Biotechnol. 18: 852-856, 2000; WO98/32845) was screened for specific binding with human CD81, using human CD81 protein and human CD9 protein having a homology with CD81, or human CD81-expressing and -non-expressing cells to obtain human antibody fragments (scFv) specifically binding with human CD81. First, phages bound to biotinylated CD81 protein in the presence of competitive CD9 protein were recovered using streptoavidin-labeled magnetic beads. Unbound phages were washed out and the bound phages were eluted by trypsin treatment. Panning was carried out three times, and the selected phage library was expressed as an antibody fragment in E. coli. […] FMAT is performed by adding antibody fragments to the cells immobilized on the wells of 384-well culture plate, and detecting its binding using a fluorescent-labeled anti-scFv antibody. As a result of the screening, two human CD81-specific human antibody fragments were selected. The nucleotide sequences (scFv-002-A07: SEQ ID NO:33, scFv-005-001: SEQ ID NO:35) and the deduced amino acid sequences (scFv-002-A07: SEQ ID NO:34, scFv-005-001: SEQ ID NO:36) of these fragments were determined by sequencing.

B1: 003-A10 (antibody, human IgG4 S228P, lambda, V domains shown)
VH: EVQLLESGGGLVQPGGSLRLSCAASGFTFSSNYMSWVRQAPGKGLEWVSYISSSSTYTDYADSVKGRFTISRDNSKNTLYLQMNSLRAEDTAVYYCARYSYGRDTFDYWGQGTLVTVSS
VL: QSVLTQPFSASGTPGQRVTISCTGSTSNIGAGYDTHWYQQLPGTAPKLLIYGNSNRPSGVPDRFSGSKSGTSASLAISGLRSEDEADYYCQSYDTNLSVWVFGGGTKLTVLG
notes: IgG4 S228P
In turn, B1 displayed a relative binding affinity with human CD81 mutant V169A of under 20%. In the assay with human CD81 mutant N172A, the relative binding affinity is under 20%. Besides, in [1], the “Jurkat chemotaxis (% of control IgG4) at 0.001 µg/mL” value turned out to be 104%, the “Jurkat chemotaxis (% of control IgG4) at 0.01 µg/mL” value was 93%, the “Jurkat chemotaxis (% of control IgG4) at 0.1 µg/mL” value came out at 15% and the “Jurkat chemotaxis (% of control IgG4) at 1 µg/mL” value worked out at 3%. Also, the “Jurkat chemotaxis (% of control IgG4) at 10 µg/mL” value in [1] came out at 3%.

B2: 003-F08 (antibody, human IgG4 S228P, lambda, V domains shown)
VH: B1 VH with L45P, T58A, T105N
VL: B1 VL with F8S, V99A
notes: IgG4 S228P
On to B2, for which the relative binding affinity in the assay with human CD81 mutant D137A, in the assay with human CD81 mutant G158S, with human CD81 mutant V169A, in the assay with human CD81 mutant A164T, with human CD81 mutant L165A and with human CD81 mutant V135A was under 20% throughout. Also, the relative binding affinity in the assay with human CD81 mutant D137E, with human CD81 mutant V135L, with human CD81 mutant V169L, in the assay with human CD81 mutant A164V and with human CD81 mutant H151R was under 20% in each case. The “Jurkat chemotaxis (% of control IgG4) at 0.001 µg/mL” value in assay [1] worked out at 80%. The “Jurkat chemotaxis (% of control IgG4) at 0.01 µg/mL” value in assay [1] was found to be 79%. Besides, the “Jurkat chemotaxis (% of control IgG4) at 0.1 µg/mL” value in assay [1] was 21%. Also, the “Jurkat chemotaxis (% of control IgG4) at 1 µg/mL” value in [1] is -3%. In addition, in assay [1], the “Jurkat chemotaxis (% of control IgG4) at 10 µg/mL” value is -4%.

B3: scFv-002-A07 (scFv)
scFv: EVQLLESGGGLVQPGGSLRLSCAASGFTFSSNYMSWVRQAPGKGLEWVSYISSSSTYTDYADSVKGRFTISRDNSKNTLYLQMNSLRAEDTAVYYCARYSYGRDNFDYWGQGTLVTVSSGGGGSGGGGSGGGGSQSVLTQPPSASGTPGQRVTISCTGSTSNIGAGYDTHWYQQLPGTAPKLLIYGNSNRPSGVPDRFSGSKSGTSASLAISGLRSEDEADYYCQSYDTNLSVWVFGGGTKLTVLGEQKLISEEDLSGSAAAHHHHHH
notes: antibody fragment from the n-CoDeR library, expressed in E. coli
Turning to B3, the binding result in [2] is recorded as “binds”.
